Substrate in this data set: OC[C@H]1O[C@@](CO)(O[C@H]2O[C@H](CO)[C@@H](O)[C@H](O)[C@H]2O)[C@@H](O)[C@@H]1O
Kind of data set: initial rates, DNS reducing sugar assay, Michaelis-Menten fit. The format is biochemical, Priestia megaterium. The text has this:
initial rates, DNS reducing sugar assay, Michaelis-Menten fit on B. megaterium levansucrase

Setting [1] is: 50 mM Sörensen buffer pH 6.5, variant 1B1, global activity (hydrolysis and transfer).
Where [2] appears, read: 50 mM Sörensen buffer pH 6.5, variant 3C5, global activity (hydrolysis and transfer).

Numbering of substitutions follows the chain as printed. In names and notes the source's numbering stands.

B1: B. megaterium levansucrase (Priestia megaterium DSM 319; K373H) (protein)
chain: KGNDSKDFNNSYGISHITRDNMVKIPQQQNSDQFKVPAFDESTIKNIASAKGKNASGNTIDLDVWDSWPLQNADGTVATYHGYQIVFALAGDPKDSNDTSVYLFYKKAGDKSIDSWKNAGRVFKDSDKFVPNDPHLKNQTQEWSGSGTLTKDGKVRLFYTDYSGKQYGKQTLTTAQVNMSQPNDNTLKVDGVEDYKSIFDGDGKIYQTVQQFIDEGGYDTGDNHTLRDPHYIEDNGHKYLVFEANTGTEDGYQGEDSLYNRAYYGGNNPFFQSEKKKLLEGSNKEKASLANGALGIIELNDDYTLKKVMKPLITSNTVTDEIERANIFKKDGKWYLFTDSRGSHMTIDGIGQDDVYMLGYVSNTLTGKYKPLNDTGLVLHMDLDPNDKTFTYSHFAVPQTKGDNVVITSYMTNRGFYEDNHSTFAPSFLVNIDGSKTSVVKDRVLEQGQLTVDED
notes: recombinant, E. coli BL21(DE3), pRSF-derived vector, purified from cleared lysate on CM sepharose
For the protein B1, under setting [1], the Km (in general, the substrate concentration at which the rate is half of its maximum) came to 41.8 ± 6.6 mM; the kcat (as a rule, the maximal rate divided by the concentration of active sites) is 198 ± 8.4 s⁻¹; the kcat/Km (in general, the turnover number divided by the Michaelis constant) worked out at 4720 M⁻¹ s⁻¹.

B2: B. megaterium levansucrase (Priestia megaterium DSM 319; K373L) (protein)
chain: B1 chain with H344L
notes: as for B1
For the protein B2, under setting [2], the Km came to 12.5 ± 1.3 mM, the kcat turned out to be 122 ± 2.3 s⁻¹ and the kcat/Km was 9800 M⁻¹ s⁻¹.

Values taken from article PMC6531494, “Exploring the sequence variability of polymerization-involved residues in the production of levan- and inulin-type fructooligosaccharides with a levansucrase” (Scientific Reports, 2019).
